{"source": "paper PMC3348928", "about": "“Ordered Self-Assembly Mechanism of a Spherical Oncoprotein Oligomer Triggered by Zinc Removal and Stabilized by an Intrinsically Disordered Domain” (PLoS ONE, 2012)", "key": {"[1]": {"biological_target": "E7 (Human papillomavirus type 16) (UniProt P03129)", "settings": "cited from earlier work"}, "[2]": {"biological_target": "Recombinant E7 HPV-16 protein (human papillomavirus type 16 E7 oncoprotein) (human papillomavirus type 16) (UniProt P03129)", "experiment": "thioflavin T fluorescence kinetics; 10 mM sodium phosphate pH 7.0, 1 mM DTT, 20 µM ThT; triggered by 1.0 mM TPEN; 15 µM protein"}, "[3]": {"biological_target": "Recombinant E7 HPV-16 protein (human papillomavirus type 16 E7 oncoprotein) (human papillomavirus type 16) (UniProt P03129)", "experiment": "thioflavin T fluorescence kinetics; 10 mM sodium phosphate pH 7.0, 1 mM DTT, 20 µM ThT; triggered by 1.0 mM EDTA; 15 µM protein (Figure 3)"}, "[4]": {"biological_target": "Recombinant E7 HPV-16 protein (human papillomavirus type 16 E7 oncoprotein) (human papillomavirus type 16) (UniProt P03129)", "experiment": "thioflavin T fluorescence kinetics; ThT traces at different initial E7 concentrations after EDTA, analysed with the kinetically limited (KL) assembly model of Zlotnick; 10 mM sodium phosphate pH 7.0, 1 mM DTT, 20 µM ThT"}, "[5]": {"biological_target": "the molecule itself", "experiment": "dynamic light scattering; 15 µM protein, 10 mM sodium phosphate pH 7.0, 1.0 mM DTT, 25°C; after addition of 1.0 mM EDTA (zinc removal); E7 at the plateau, E7C after 2 h and 24 h"}}}
{"molecule": "E7 (from UniProt P03129)", "values": [{"measurement": "Kd", "setting": "[1]", "result": 1000, "unit": "nM"}]}
{"molecule": "Recombinant E7 HPV-16 protein (human papillomavirus type 16 E7 oncoprotein) (from UniProt P03129 1-98) (natural protein)", "values": [{"measurement": "half-life of the slow oligomerization phase, TPEN", "setting": "[2]", "result": "< 6", "unit": "min"}, {"measurement": "half-life of the slow increase in ThT binding (oligomerisation phase)", "setting": "[3]", "result": 10, "unit": "min"}, {"measurement": "half-life of the slow oligomerization phase, EDTA", "setting": "[3]", "result": "< 8", "unit": "min"}, {"measurement": "overall average time for each monomer added at 20 µM", "setting": "[4]", "result": 28, "unit": "s"}, {"measurement": "z-nucleus size n (KL model)", "setting": "[4]", "result": 1.2}]}
{"molecule": "E7 HPV-16 C-terminal domain, spanning residues 40-98 (domain or fragment, human papillomavirus type 16, UniProt P03129 40-98, looked up, The introduction gives 58 amino acids for E7C, but residues 40-98 are 59; also called E7C; source: recombinant, expressed and purified as previously described [52]) GPAGQAEPDRAHYNIVTFCCKCDSTLRLCVQSTHVDIRTLEDLLMGTLGIVCPICSQKP", "values": [{"measurement": "binding result", "setting": "[5]", "result": "binds"}]}
